Common to all, as to test: Calcium mobilization (FLIPR, Fluo-3) in transfected COS-7 cells
Holding throughout (assay type): cell-based
On the technique in general: Calcium assays in cells follow changes in intracellular calcium, usually with a dye or a luminescent sensor.

One assay addresses r Y4 (Rattus norvegicus, UniProt Q63447). Particulars: r Y4 + chimera in COS-7; agonist PP, max 10 μM. The method, boiled down:
(§1)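 Assay buffer was HBSS with 20 mM HEPES (pH 7.4), 0.1% BSA and 2.5 mM probenecid, and cells were loaded with 4 μM Fluo-3. Transfected COS-7 cells carried receptor and chimeric G protein cDNA at 1:1 or 8:1:1 ratios. Peak fluorescence change gave Hill-fitted curves.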

A further assay addresses T1, h D2 (Homo sapiens, UniProt P14416).
T1 construct: expressed in transfected cells; host or cells: COS-7
Particulars: h D2 + chimera in COS-7; agonist DA, max 100 μM. The method, boiled down: as §1

The target of the next assay is h MCH (Homo sapiens, UniProt Q99705). The settings on record: h MCH + chimera in COS-7; agonist MCH, max 10 μM. The gist of the method:
as §1

Another assay addresses h 5HT7 (Homo sapiens, UniProt P34969). The settings on record: h 5HT7 + chimera in COS-7; agonist 5HT, max 100 μM. The method, boiled down:
as §1

For the next assay, the target named is T2, h kappa (Homo sapiens, UniProt P41145).
T2 construct: expressed in transfected cells; host or cells: COS-7
The settings on record: h kappa + chimera in COS-7; agonist U-69593, max 100 μM. The method, boiled down:
as §1

The target in the next assay is T3, r GALR2 (Rattus norvegicus, UniProt O08726).
T3 construct: expressed in transfected cells; host or cells: COS-7
T3 sequence (O08726 1-372): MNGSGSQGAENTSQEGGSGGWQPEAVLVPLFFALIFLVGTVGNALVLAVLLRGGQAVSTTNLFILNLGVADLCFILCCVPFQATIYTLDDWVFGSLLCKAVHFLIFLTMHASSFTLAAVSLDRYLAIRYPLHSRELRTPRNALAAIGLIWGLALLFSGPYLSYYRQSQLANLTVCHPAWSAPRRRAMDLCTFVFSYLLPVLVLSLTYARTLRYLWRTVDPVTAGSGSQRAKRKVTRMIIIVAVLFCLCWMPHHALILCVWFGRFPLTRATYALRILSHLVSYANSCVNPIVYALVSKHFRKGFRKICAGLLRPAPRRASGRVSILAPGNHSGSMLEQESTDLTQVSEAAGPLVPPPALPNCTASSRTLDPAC
Particulars: r GALR2 + chimera in COS-7; agonist GAL, max 10 μM. The method, boiled down: as §1

A further assay has as its target T4, h Y2 (Homo sapiens, UniProt P49146).
T4 construct: expressed in transfected cells; host or cells: COS-7
T4 sequence (P49146 1-381): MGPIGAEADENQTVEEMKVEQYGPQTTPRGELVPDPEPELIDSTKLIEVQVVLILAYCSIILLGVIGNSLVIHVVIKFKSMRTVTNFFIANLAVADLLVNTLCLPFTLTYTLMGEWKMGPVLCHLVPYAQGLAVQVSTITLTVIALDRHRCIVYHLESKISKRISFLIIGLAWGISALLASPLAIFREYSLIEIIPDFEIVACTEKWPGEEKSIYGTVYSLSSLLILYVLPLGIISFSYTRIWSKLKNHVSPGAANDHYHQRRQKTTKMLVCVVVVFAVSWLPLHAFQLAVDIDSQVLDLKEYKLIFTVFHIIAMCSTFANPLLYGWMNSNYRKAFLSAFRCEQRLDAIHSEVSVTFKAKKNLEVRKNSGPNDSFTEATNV
Particulars: h Y2 + chimera in COS-7; agonist NPY, max 10 μM. The gist of the method: as §1

The next assay addresses m 5HT5B (Mus musculus, UniProt P31387). Particulars: m 5HT5B + chimera in COS-7; agonist 5HT, max 100 μM. The gist of the method: as §1
In the next assay the target is T5, h GALR2 (Homo sapiens, UniProt O43603).
T5 construct: expressed in transfected cells; host or cells: COS-7
T5 sequence (O43603 1-387): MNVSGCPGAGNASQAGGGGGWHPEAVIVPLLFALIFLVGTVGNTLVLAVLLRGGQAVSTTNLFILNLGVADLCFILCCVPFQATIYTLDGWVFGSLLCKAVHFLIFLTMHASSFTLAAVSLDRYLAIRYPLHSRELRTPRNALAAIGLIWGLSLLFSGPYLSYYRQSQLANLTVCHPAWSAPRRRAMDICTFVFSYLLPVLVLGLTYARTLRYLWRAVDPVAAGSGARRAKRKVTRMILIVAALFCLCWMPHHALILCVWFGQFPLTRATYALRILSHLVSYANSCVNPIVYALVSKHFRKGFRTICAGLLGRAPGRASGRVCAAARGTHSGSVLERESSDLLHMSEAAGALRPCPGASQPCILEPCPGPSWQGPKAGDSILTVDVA
Particulars: h GALR2 + chimera in COS-7; agonist GAL, max 10 μM. The method, boiled down: as §1

The target in another assay is T6, h NPFF1 (Homo sapiens, UniProt Q9GZQ6).
T6 construct: expressed in transfected cells; host or cells: COS-7
The settings on record: h NPFF1 + chimera in COS-7; agonist NPFF, max 10 μM. The gist of the method:
as §1

Residue numbers refer to the chain shown, from its start.

Sequence of m 5HT5B (P31387 whole entry): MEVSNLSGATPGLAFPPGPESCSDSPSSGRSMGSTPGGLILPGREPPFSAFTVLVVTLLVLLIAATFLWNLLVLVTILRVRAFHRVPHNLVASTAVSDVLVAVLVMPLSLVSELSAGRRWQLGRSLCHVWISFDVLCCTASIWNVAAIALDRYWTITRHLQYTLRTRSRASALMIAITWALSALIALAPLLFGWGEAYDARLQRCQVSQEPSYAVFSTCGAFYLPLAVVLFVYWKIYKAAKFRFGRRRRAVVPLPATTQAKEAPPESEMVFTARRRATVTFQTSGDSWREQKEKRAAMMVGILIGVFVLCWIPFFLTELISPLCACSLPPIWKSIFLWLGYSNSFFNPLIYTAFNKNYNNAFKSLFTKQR
T2 sequence (P41145 whole entry): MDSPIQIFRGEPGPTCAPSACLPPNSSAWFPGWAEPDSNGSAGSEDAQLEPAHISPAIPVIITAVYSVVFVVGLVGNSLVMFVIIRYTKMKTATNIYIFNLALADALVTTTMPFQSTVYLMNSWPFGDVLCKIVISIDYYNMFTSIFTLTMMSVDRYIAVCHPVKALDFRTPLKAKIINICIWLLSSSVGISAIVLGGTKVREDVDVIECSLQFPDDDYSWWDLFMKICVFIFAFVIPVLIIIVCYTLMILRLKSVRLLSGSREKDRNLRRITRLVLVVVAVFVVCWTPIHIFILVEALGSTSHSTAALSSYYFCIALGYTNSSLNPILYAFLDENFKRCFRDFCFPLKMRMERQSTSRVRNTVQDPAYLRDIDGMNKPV
Sequence of h 5HT7 (P34969 whole entry): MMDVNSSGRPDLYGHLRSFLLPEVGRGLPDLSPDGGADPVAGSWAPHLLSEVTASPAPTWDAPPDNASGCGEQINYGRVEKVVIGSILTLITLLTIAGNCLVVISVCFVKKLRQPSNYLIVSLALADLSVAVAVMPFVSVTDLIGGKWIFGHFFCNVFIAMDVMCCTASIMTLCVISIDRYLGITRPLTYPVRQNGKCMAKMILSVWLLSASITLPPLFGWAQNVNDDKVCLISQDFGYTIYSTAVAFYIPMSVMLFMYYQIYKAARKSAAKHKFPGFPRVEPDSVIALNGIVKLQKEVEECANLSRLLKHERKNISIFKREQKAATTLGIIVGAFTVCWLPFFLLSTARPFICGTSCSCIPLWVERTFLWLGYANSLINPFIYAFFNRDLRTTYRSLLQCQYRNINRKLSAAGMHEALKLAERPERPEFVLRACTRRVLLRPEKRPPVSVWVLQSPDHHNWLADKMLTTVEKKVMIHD
Sequence of h MCH (Q99705 whole entry): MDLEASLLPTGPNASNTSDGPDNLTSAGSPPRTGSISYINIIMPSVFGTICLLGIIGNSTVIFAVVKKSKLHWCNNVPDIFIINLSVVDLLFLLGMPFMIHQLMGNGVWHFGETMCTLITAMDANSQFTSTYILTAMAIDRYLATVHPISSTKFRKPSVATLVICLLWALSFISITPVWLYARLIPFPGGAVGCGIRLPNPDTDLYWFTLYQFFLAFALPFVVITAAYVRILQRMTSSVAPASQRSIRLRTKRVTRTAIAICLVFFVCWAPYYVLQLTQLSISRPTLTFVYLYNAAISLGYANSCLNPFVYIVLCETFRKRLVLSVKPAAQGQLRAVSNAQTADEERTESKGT
Sequence of r Y4 (Q63447 whole entry): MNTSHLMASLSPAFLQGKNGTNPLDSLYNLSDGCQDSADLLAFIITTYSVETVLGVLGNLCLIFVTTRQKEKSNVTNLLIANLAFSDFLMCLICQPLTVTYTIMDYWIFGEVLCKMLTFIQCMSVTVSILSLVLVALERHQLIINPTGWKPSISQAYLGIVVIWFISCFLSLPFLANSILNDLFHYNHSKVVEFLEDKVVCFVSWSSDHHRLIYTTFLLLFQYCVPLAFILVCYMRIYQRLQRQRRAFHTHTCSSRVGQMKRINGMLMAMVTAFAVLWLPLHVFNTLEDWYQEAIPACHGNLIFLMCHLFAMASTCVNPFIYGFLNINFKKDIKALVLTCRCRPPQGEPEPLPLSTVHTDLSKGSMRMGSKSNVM
T6 sequence (Q9GZQ6 whole entry): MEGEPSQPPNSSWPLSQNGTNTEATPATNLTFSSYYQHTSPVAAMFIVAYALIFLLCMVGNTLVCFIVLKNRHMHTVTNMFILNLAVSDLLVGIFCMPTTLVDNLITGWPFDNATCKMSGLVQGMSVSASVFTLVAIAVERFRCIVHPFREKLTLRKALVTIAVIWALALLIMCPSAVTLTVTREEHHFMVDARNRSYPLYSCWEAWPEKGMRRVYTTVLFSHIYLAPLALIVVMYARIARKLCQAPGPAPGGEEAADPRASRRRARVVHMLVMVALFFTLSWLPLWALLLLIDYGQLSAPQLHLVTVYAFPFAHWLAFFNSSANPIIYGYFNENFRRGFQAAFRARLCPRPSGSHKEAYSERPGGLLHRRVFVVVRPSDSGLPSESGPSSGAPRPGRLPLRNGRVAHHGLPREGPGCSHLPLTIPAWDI
T1 sequence (P14416 whole entry): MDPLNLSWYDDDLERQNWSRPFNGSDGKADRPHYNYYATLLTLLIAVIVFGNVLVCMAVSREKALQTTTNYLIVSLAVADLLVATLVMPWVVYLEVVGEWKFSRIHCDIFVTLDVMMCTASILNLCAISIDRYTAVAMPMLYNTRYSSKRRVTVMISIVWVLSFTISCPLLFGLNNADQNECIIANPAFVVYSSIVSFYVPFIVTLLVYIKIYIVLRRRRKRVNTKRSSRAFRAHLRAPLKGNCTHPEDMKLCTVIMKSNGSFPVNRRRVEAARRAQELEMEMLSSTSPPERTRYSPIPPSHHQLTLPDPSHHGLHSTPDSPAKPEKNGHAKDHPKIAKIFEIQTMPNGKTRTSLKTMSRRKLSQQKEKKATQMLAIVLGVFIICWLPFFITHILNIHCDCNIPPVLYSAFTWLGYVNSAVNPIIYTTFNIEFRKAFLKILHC

B1: cGαq/z5: chimeric Gα subunit: C-terminal final 5 amino acids of C. elegans Gαq replaced with those of hGαz (SEQ ID NO: 1) (protein)
chain: MACCLSEEAREQKRINQEIEKQLQRDKRNARRELKLLLLGTGESGKSTFIKQMRIIHGQGYSEEDKRAHIRLVYQNVFMAIQSMIRAMDTLDIKFGNESEELQEKAAVVREVDFESVTSFEEPYVSYIKELWEDSGIQECYDRRREYQLTDSAKYYLSDLRRLAVPDYLPTEQDILRVRVPTTGIIEYPFDLEQIIFRMVDVGGQRSERRKWIHCFENVTSIMFLVALSEYDQVLVECDNENRMEESKALFRTIITYPWFTNSSVILFLNKKDLLEEKILYSHLADYFPEYDGPPRDPIAAREFILKMFVDLNPDADKIIYSHFTCATDTENIRFVFAAVKDTILQHNLKYIGLC
modifications: C. elegans
For the molecule B1, the “MAXIMAL SIGNAL (FLUORESCENCE UNITS)” value with r Y4 came to 3662 fluorescence units; in the assay with h D2 it was 7615 fluorescence units; with h MCH it was 2699 fluorescence units; in the assay with h 5HT7, 166 fluorescence units; with h kappa, 5975 fluorescence units; with r GALR2, 4198 fluorescence units. For the same molecule, the “MAXIMAL SIGNAL (FLUORESCENCE UNITS)” value in the assay with h Y2 was determined as 7708 fluorescence units; with m 5HT5B it was 265 fluorescence units; with h GALR2, 5470 fluorescence units; with h NPFF1, 6593 fluorescence units.

B2: cGαq/z9: C. elegans Gαq with Gαz portion of the C-terminal tail extended to 9 amino acids (SEQ ID NO: 2) (protein)
chain: B1 chain with H347N
modifications: C. elegans
For the molecule B2, the “MAXIMAL SIGNAL (FLUORESCENCE UNITS)” value with r Y4 is 2583 fluorescence units; with h D2, 4305 fluorescence units; with h MCH it was 3332 fluorescence units; with h 5HT7 it was 129 fluorescence units; with h kappa, 3472 fluorescence units; with r GALR2, 4470 fluorescence units. The “MAXIMAL SIGNAL (FLUORESCENCE UNITS)” value is 5387 fluorescence units with h Y2, 443 fluorescence units with m 5HT5B, 4899 fluorescence units with h GALR2 and 2966 fluorescence units with h NPFF1.
